In patent US8455448B2, “Myostatin isoform” (Myostin Therapeutics Pty Ltd, priority 2004, dated 2013):

T1: myostatin (Bos taurus, UniProt O18836)
T1 sequence (O18836 267-375): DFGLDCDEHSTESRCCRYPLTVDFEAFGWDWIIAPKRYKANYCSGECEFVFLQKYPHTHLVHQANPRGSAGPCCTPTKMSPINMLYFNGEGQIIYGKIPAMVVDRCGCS

B1: roMSV65: 65 amino acid C-terminal peptide of ovine MSV (SEQ ID NO: 49) expressed as recombinant protein in E. coli (protein)
chain: VHFYTPPYGQWIFHKERKIIFLEVYIQFCSILGEAVFKRQSKSIHFCQNFKIIACLCNTAAFRMK
modifications: Ovis aries

Molecular target: T1, myostatin
Assay: MSV/canonical myostatin competition in C2C12 proliferation assay
Type: cell-based, bovine
Conditions: 1.5 μg/ml Mstn
Method: Competition of roMSV65 with canonical myostatin was carried out with C2C12 murine myoblasts. Myoblasts were seeded in 96-well tissue culture plates (Nunc, Roskilde, Denmark) at a cell density of 1000 cells per well in 200 μl of Dulbecco's modified Eagle's medium (DMEM, Invitrogen, California) supplemented with foetal bovine serum (FBS, 10% v/v, Invitrogen), penicillin (1×10^5 IU/l, Sigma, St Louis, Mo., USA) and streptomycin (100 mg/l, Sigma) buffered with NaHCO3 containing phenol red (7.22 nmol/l) as a pH indicator, and incubated overnight at 37° C. with 5% CO2. The medium was replaced with DMEM 10% FBS test medium containing no added protein, 1.5 or 2.5 μg/ml recombinant myostatin alone and with combination of 1, 2, 4, 10, 20 molar ratio of roMSV65, and the same amounts of roMSV65 without myostatin in a semi-random arrangement of eight replicates (n=8) for each test medium. Plates were incubated at 37° C. with 5% CO2 for 72 hours, and then the medium was removed. […] The plates were gently shaken and the absorbance was measured at 655 nm using a microplate photometer (VersaMax, Molecular Devices, CA).
Competition of roMSV47 with canonical myostatin was carried out with C2C12 murine myoblasts. […] The plates were gently shaken and the absorbance was measured at 655 nm using a microplate photometer (VersaMax, Molecular Devices, CA). […]

| Molecule | restoring of myostatin inhibited proliferation (1:10 molar ratio of myostatin to MSV, 69 h, FIG. 11) | overcoming myostatin-induced inhibition of proliferation (48 h, FIG. 9) |
| --- | --- | --- |
| roMSV47: 47 amino acid C-terminal mature ovine MSV fragment (SEQ ID NO: 50), recombinant from E. coli (IIFLEVYIQFCSILGEAVFKRQSKSIHFCQNFKIIACLCNTAAFRMK; Ovis aries) | ineffective at restoring proliferation | – |
| B1 | – | overcame myostatin-induced inhibition of proliferation |
